This passage reports cytotoxic activity (%) results from US20140212888A1.

The test concerns the target WT1 (mutant) peptide presented by HLA-A*24:02 on HLA-A*24:02 positive LCL (human). Briefly: cell-based or functional assay.

B1: 37F8-derived TCR, WT1 TCR A12-3/B5-1 (TCR α-chain TRAV12-3/TRAJ52/TRAC, TCR β-chain TRBV5-1/TRBD2/TRBJ2-5/TRBC2) (TCR)
TCR alpha: WVWSQQKEVEQDPGPLSVPEGAIVSLNCTYSNSAFQYFMWYRQYSRKGPELLMYTYSSGNKEDGRFTAQVDKSSKYISLFIRDSQPSDSATYLCATSNAGGTSYGKLTFGQGTILTVHPNIQNPDPAVYQLRDSKSSDKSVCLFTDFDSQTNVSQSKDSDVYITDKTVLDMRSMDFKSNSAVAWSNKSDFACANAFNNSIIPEDTFFPSPESSCDVKLVEKSFETDTNLNFQNLSVIGFR
TCR beta: GPVKAGVTQTPRYLIKTRGQQVTLSCSPISGHRSVSWYQQTPGQGLQFLFEYFSETQRNKGNFPGRFSGRQFSNSRSEMNVSTLELGDSALYLCASSYGERERKGETQYFGPGTRLLVLEDLKNVFPPEVAVFEPSEAEISHTQKATLVCLATGFYPDHVELSWWVNGKEVHSGVSTDPQPLKEQPALNDSRYCLSSRLRVSATFWQNPRNHFRCQVQFYGLSENDEWTQDRAKPVTQIVSAEAWGRADCGFTSESYQQGVLSATILYE
The molecule B1 registered a cytotoxic activity (%) of 73%.
